From patent EP4624487A1

Target: antiserum C2
Experiment: competition ELISA: peptide added to C2 on plate-bound hTNFα

Binder	OD450 with peptide	inhibition rate (%)
AHVVANPQAEGQLQW [hTNFα peptide H(14-28)]	1.65	7%
HVLLTHTISRIAVSY [hTNFα peptide H(73-87)]	1.79	-1%
QVLFKGQGCPSTHVL [hTNFα peptide H(61-75)]	1.73	10%
LQWLNRRANALLANG [hTNFα peptide H(26-40)]	0.313	82%

The remaining lines, values ahead:

OD450 with peptide	inhibition rate (%)	Binder
1.42	19%	ANGVELRDNQLVVPS [hTNFα peptide H(38-52)]
1.74	8%	DKPVAHVVANPQAEG [hTNFα peptide H(10-24)]
1.7	12%	ISRIAVSYQTKVNLL [hTNFα peptide H(80-94)]
1.35	21%	SEGLYLIYSQVLFKG [hTNFα peptide H(52-66)]
1.77	10%	LGGVFQLEKGDRLSA [hTNFα peptide H(120-134)]
1.78	12%	GDRLSAEINRPDYLD [hTNFα peptide H(129-143)]
1.78	5%	QTKVNLLSAIKSPCQ [hTNFα peptide H(88-102)]
1.79	6%	LSAIKSPCQRETPEG [hTNFα peptide H(94-108)]

Target: antiserum B1
Experiment: competition ELISA: peptide added to B1 on plate-bound hTNFα

Binder	OD450 with peptide	inhibition rate (%)
GQLQWLNRRANALLA [hTNFα peptide T(24-38)]	0.103	92%
VRSSSRTPSDKPVAH [hTNFα peptide T(1-15)]	1.1	13%
SDKPVAHVVANPQAE [hTNFα peptide T(9-23)]	1.06	4%
NQLVVPSEGLYLIYS [hTNFα peptide T(46-60)]	1.16	10%
PIYLGGVFQLEKGDR [hTNFα peptide H(117-131)]	1.2	0%
NGVELRDNQLVVPSE [hTNFα peptide T(39-53)]	1.01	23%

The next lines start with the values.

OD450 with peptide	inhibition rate (%)	Binder
1.11	9%	DRLSAEINRPDYLDF [hTNFα peptide T(130-144)]
1.06	9%	VVANPQAEGQLQWLN [hTNFα peptide T(16-30)]
1.12	13%	LTHTISRIAVSYQTK [hTNFα peptide T(76-90)]
1.06	14%	PCQRETPEGAEAKPW [hTNFα peptide T(100-114)]
0.106	91%	RRANALLANGVELRD [hTNFα peptide T(31-45)]
1.17	3%	VNLLSAIKSPCQRET [hTNFα peptide T(91-105)]
